Measurements taken from the DeepSol protein solubility set.

Assay: soluble on expression in E. coli; label from the status in PepcDB or PDB records

Soluble on expression in E. coli, not soluble:
MGSDKIHHHHHHMTTAQQTENKGQQTRTVAELVEDIKALTTEIQELYCLDQIPWVLGVSWGKDSSTVLQLVWNAIAALPPEKRTKTVYVITTDTQVENPVVSAWVRKSLQNLKIAAKEQGMPIDPHLLQPVIQDTFWVNLIGKGYPAPRNQFRWCTPRLKINPANQFIREIVRANGETILVLGTRKAESSKRAATMKKHQVDRVRDRLSPNASLPNSLIYTPIEDWSNNDVWIYLNQWNNPWGQSNKELFTMYRGATADNECPLVVDTSTPSCGDSRFGCWVCTLVSKDKSMEAMIQNDEEKEWMQPLLDIRNELDIKDDRDKRDFRRIWGEVQLFERNKDGKISVDPIPGPYTKYWREYWLKRLLEAQIKTRRTAPENMRDITLITLEEMSEIRRIWLEDKHEFDDSLPRIYQEVTGEEFQDPRPGADYSLLGRDEWIVLEEICEGDAMHLELMAKLLDTERQYRKKTRRVGIYETLEKCFNTSSRSPEDAIKNARLKRELSEAVSQGDVAKVKQMTLGDVAAINEVDEGQSESDEEVTWASMKFKKENSEE
MGSDKIHHHHHHMTTFEVKDTAHVAFKIINLRCPHCHHAASFSGFDGCSDLRYNVQAKRHPSGATTNTFDIAGMRRCPNTTCRKLVFVMEDKYGEIESFPPEVIDFDASNLPSDILSSLEEAIRCHAANCYRASALMVRRTLEELCDNKSATGKDLKTRLAALGTVAVIPSELLSAADELRILGNDAAHIEAKDYDSIGKEESEIAIELAKELLKAVYQYTSLVARLTALKKPKQ
MGSDKIHHHHHHMTTNEIEIRLMQDVDAAGVVELYKTVYGNEYPVKTVYDPAAVIEQQNNGEMYRIIARSGDKVVGQTALYRSTSPNPELYEEGQGIVLPLYRNQGILEQCLAYGHKVAYPQLNIKQEWGEAVCNHTFTQKAGARLGAFETGIELDLMPASSYVKEQSSQGRVAALVMFLIFQAAPPQLLYLPETYADSLHYLYSAYDFKHEFVSSKSLLPEQATRGQVEIYADAAVARFTLLETGKDLEDYLLEQEKLAQAQGCSVFQAYLKLANPAVGHAVNILREHQYFLGGILPRWFATDGLLMQKLLHEPNLEGINLYSERSHKILNMIIDDRNTVIK
MGSDKIHHHHHHMTTNSLLIIDFEFTMPDGKYSPQNFFPEIIEAGIVKSIDDEVVETFSSYVRPKKFPKLTKRCKSFLKITQKQVDEGMRFEDFIRKLNELDPEKNSTIITWGNMDMKVLKQNCMFNHIPFPFKGEMRDLSLEYKNFFGDRTLTGLWKAAEEYGDSGTGTHHKALDDALTAYKLFKLVEQDKQYLEKPKPPTIGERIDLTELLKRAT
MGSDKIHHHHHHMTTTSTPGLFERPITLPDADAQSRLAKLVGMDDKIRRLSNVLAVLINPAGLKEWLDQHHAHSTGLLDAVLRRPPLVVLSGDVGSGKTELAETIGDMVARQEGIDITLLPLSLSSRGQGRVGEMTQLVSAAFDHAFHEASKVKSSRGSRSRGGVILLVDEADALAQSREADQMHHEDRAGVNAFIRGIDRLANGHLPAAVLMCTNRLNALDPAVRRRAADILVFERPDEAQRLEVLHRRLGDAGFGKADLQSLVAATGEQAKRPYGFTYSDLTQRLLPAIVLDAYPQGPIKPSRAIELARAMAPTPPFKDSTARGC
MGSDKIHHHHHHMTVHWRERVGNQRDWVWRGWRTRYTYIRPSQEGQEKTPLILLHGFGASIGHWRHNLEVLGESHTVYALDMLGFGGSEKAPANYSIELWVEQVYDFWRAFIRQPVVLIGNSNGSLISLAAAAAHPDMVKGIVMMSLPDPSLEQEMIPPFLRPVVTTIKNIVASPIFLKPVFYFVRRPSILRRWAGIAYANPAAITDELVDILAGPPQDRGSARAFSALFKAAIGVNFSPSVKAILPTLQIPMLLIWGNKDRFVPPILANQFAQYNEKLQLLNLDDVGHCPHDECPEQVNKAILAWMDKSLGDY
MGSDKIHHHHHHMTVLHSPEPDIDPAILLEAADWLVLLQSGEATERDRMALAHWRERNPAHEAAWRRAENMLSTFDQVPPKLGHDTFSHLGNPGRRQMLRLGLLALAMPAAWITWRHSPWQEWVADLRTATGEQKLIDLNDGTHLVLNTTSAANVAFTTAERRLILLAGEILVTTGRDPSPVSRPFIVQTAHGSLRALGTRFTVRHFDDRTQVAVLEGAVEVHPAVSIQTTVLRAGEQMTFTGLDMQPVRPVEASTTLWEHGMLLARDMHLGELIAELNRYHRGVLRCDPSVASLAISGAFPVTDIPASLALLETTLPIRISSTTSWWITVQAR
MGSDKIHHHHHHMTVQQFIKKLVRLVELERNAEINAMLDEMKRLSGEEREKKGRAVLGLTGKFIGEELGYFLVRFGRRKKIDTEIGVGDLVLISKGNPLKSDYTGTVVEKGERFITVAVDRLPSWKLKNVRIDLFASDITFRRQIENLMTLSSEGKKALEFLLGKRKPEESFEEEFTPFDEGLNESQREAVSLALGSSDFFLIHGPFGTGKTRTLVEYIRQEVARGKKILVTAESNLAVDNLVERLWGKVSLVRIGHPSRVSSHLKESTLAHQIETSSEYEKVKKMKEELAKLIKKRDSFTKPSPQWRRGLSDKKILEYAEKNWSARGVSKEKIKEMAEWIKLNSQIQDIRDLIERKEEIIASRIVREAQVVLSTNSSAALEILSGIVFDVVVVDEASQATIPSILIPISKGKKFVLAGDHKQLPPTILSEDAKDLSRTLFEELITRYPEKSSLLDTQYRMNELLMEFPSEEFYDGKLKAAEKVRNITLFDLGVEIPNFGKFWDVVLSPKNVLVFIDTKNRSDRFERQRKDSPSRENPLEAQIVKEVVEKLLSMGVKEDWIGIITPYDDQVNLIRELIEAKVEVHSVDGFQGREKEVIIISFVRSNKNGEIGFLEDLRRLNVSLTRAKRKLIATGDSSTLSVHPTYRRFVEFVKKKGTYVIF
MGSDKIHHHHHHMTVRQDIHSSGIPVLCLSCAARLRGVCAALDPNHLVGLAKTSSRHKLEPGVELIADAEAVDSYSNLLSGVVKLTKCLSDGRQQIVGLRFAPDFLGRPFKVKSTINVEAATSVSLCSFPKAAVERIMKESPGLEHRLLKQTLDELDEALEWMVTLGRKTAPEKVASFLLMIARNMDSSIDPAAGSACFDLPLTRADISDFLGLTNETVSRQLTRLRADGVIRIENKRHVTVDSMSRLEQRCGGRGARQPAFE
MGSDKIHHHHHHMVEKLASSEVANRLNEWYDTIKQQDVERASKLRNEVQEAINQMEEDQNVLQYFNLIDSRFRQVIEEFDKSKTILKSIKNQTERSETDQLLRYYYFFFNGLYEFYKRNYIQAIHYYRQAENFLISIPDEIEHAEFHIQLANAYYGIEQNFFSLSHAKKALNIYLNHENYVNRLITTQLTIAANELDLKQYGSAETLYKKAIKTASEHNHAFMEVLGYFNLGICYELQDKLEFARDCFEAALDISYPQENKRDSYLRIKYMLARTLFKMELVDEAMDWFEDAQTLVDATNEETYQAKLKIIYSIYKTYDETSIDNGLEVLREKKLWHDVSDLTTNAARHFKKKEMFKLATKYFSEALLAKEKIPMLHKEVESE
MGSDKIHHHHHHMVGIVLASHGGFADGIAESAQMLFGPQDNFAHVILKPSEGPEDIKGKMNEAIASFADQEEVLFLVDLWGGTPFNQANGLLDGHDKWAIVSGLNLPMVVEALTQRMINDKATAQDIATAIIKPAKDGIKTKPESLMPAEEKAAAPAAAAGAPKEAIPEGTVLGDGHIKIVGARIDSRLLHGQVVTGWIPSLHPDRVIVVSDKIAKDDLRKSMIREAAPAGTVAHTVPLEKMKEIYEDPRFGTTHAFLLFENPEDALQTIKNGVDIKTLNVGSMSYSKGKVNANNVLSMDQTDVDTFRELEKMGIKFDVRKVPSDNPENMDSILKKAQSLLDEQSSSEKRS
MGSDKIHHHHHHMVGTDHVVHSLVACALCFKAVTLPLSSQTQILSGWGRTMPVQAKVVQPASVQQVQELVRQASPASLIARGLGRSYGDAAQLDGASAVEMGAFDQINLDLVKGSVTAGAGVSLNQLLRVIVPAGFFLPVTPGTRNVTIGGAIAADVHGKNHHVDGSFGNHLQRLLLVDGRGELRELTPSGKSSVDEIEQFWATVGGMGLTGIIVEATFSLIPISSSLISVNTARYHNLDELMAAMVASDSNYRYSVAWIDSLNAKGRGVLSCGDHAMAEQLPTSQQADPLVYDPKPLASAPTFLPVGLLNKLTVRAFNEAWFRKAPKQRLGELQTIGAYFHPLDGVQDWNRIYGPAGFLQYQFVVPDNASHLVLYTLEALRKIGTSSFLTVLKRFGPSNPGHLSFPMQGWTLAVDLPAAVPGLFEVLDHLDEHIAAENGRLYLAKDSRQSATILRRTYPRLEEWQQAREKLDPSKVFSSDMAIRTGL
